Laboratory results: the supplement of paper PMC12042874
± gives the uncertainty stated by the source.

Experiment: amyloid nucleation score (Sup35N fusion, yeast selection) (log enrichment); library NNK3; higher = more nucleation; inactive = no reads after selection
In short: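 Random libraries were run with three technical output replicates. In each, psi-negative yeast expressing Sup35N fused to peptides of 20 random codons were induced 24 hours with 100 μM copper sulfate and grown 7 days at 30°C on medium lacking adenine and uracil, and input and output plasmid inserts were Illumina-sequenced. The nucleation score is the DiMSum log enrichment of output over input reads, centred on the mode score of non-aggregating sequences, and sequences under 100 input reads were excluded.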
With YARYNTLVLSAKPPLLYDSW the amyloid nucleation score was “inactive”.
In the case of MEGFSMIIRDAWKFTCVVEW, the amyloid nucleation score is reported as “inactive”.
For EHNNQLGIWSTYPCSNLSGH, the amyloid nucleation score was “inactive”.
For KLVQLYTLKFFGLNCSKSVI, the amyloid nucleation score was “inactive”.
In the case of HNDSYRMWGRGPPIVLT, the amyloid nucleation score is reported as “inactive”.
For TGPFGINLRGR, the amyloid nucleation score was “inactive”.
For STDNVGMGKGWTGVIGWRVM, the amyloid nucleation score was “inactive”.
With ALTHHVVYLMAGKNVTTS the amyloid nucleation score was “inactive”.
With SLSHECTSNKTEQVIERRLW the amyloid nucleation score was “inactive”.
Work on TGTSSKYVGEVLHSLVVWFA yielded an amyloid nucleation score of -0.575 ± 1.5.
For TSQTLESQDLIFSGCHSGWL, the amyloid nucleation score was “inactive”.
In the case of FPIWLLDCKEDCVLSDVAAS, the amyloid nucleation score is reported as “inactive”.
With YLMSYGRWDRWKWWYFYRLW the amyloid nucleation score was “inactive”.
LRIGNVVCLKLSFSFNRYLW gave an amyloid nucleation score of 0.352 ± 0.75.
LHPSRLDGT gave an amyloid nucleation score of 0.411 ± 0.25.
In the case of VRCYRVIMRLTFAETCQGHP, the amyloid nucleation score is reported as “inactive”.
For TYKHNSTYIKPLTSFLQSGG, the amyloid nucleation score was “inactive”.
For RWSRGMVSNCRENATWYDAA, the amyloid nucleation score was “inactive”.
In the case of CAISLVRLTVQSEEIRVDRN, the amyloid nucleation score is reported as “inactive”.
With ATSEYWILLVFYLCDIAQVS the amyloid nucleation score was “inactive”.
For SAYLELLLRSFAVICNLSLT, the amyloid nucleation score was 2.31 ± 0.061.
For LNRAPTAQLSGDCRVGVQAT, the amyloid nucleation score was “inactive”.
With FSALQWGSRTYIFVYSGNMS the amyloid nucleation score was 0.658 ± 0.24.
With YVDTAHHGSFENLECVEGLC the amyloid nucleation score was “inactive”.
For LSSCMWDGPFFNCRVMKLSG, the amyloid nucleation score was “inactive”.
For SMDMRWAFICLILTITSMGR, the amyloid nucleation score was “inactive”.
With VEYQNI the amyloid nucleation score was “inactive”.
For VMDLLK, the amyloid nucleation score was “inactive”.
With VLAGACDYPYGNVLV the amyloid nucleation score was “inactive”.
With YVGPKMFLVWVCDATDVGKW the amyloid nucleation score was “inactive”.
In the case of LCNSVRNGNYYTGYGVTLYV, the amyloid nucleation score is reported as “inactive”.
In the case of RTLLGEEWLCSVEMEVVGGQ, the amyloid nucleation score is reported as “inactive”.
With TTTLDSQSNNMFGAS the amyloid nucleation score was “inactive”.
With FIALIYVIIPDIEGSVYVSN the amyloid nucleation score was “inactive”.
Work on VLDKVKWTLLCNGRRAVAPW yielded an amyloid nucleation score of -0.089 ± 1.4.
In the case of LFGTFQWVDWGLFIL, the amyloid nucleation score is reported as “inactive”.
In the case of RSMKLPAKTASLLH, the amyloid nucleation score is reported as “inactive”.
With FDLLRSNYYSFRCVCEVIDR the amyloid nucleation score was “inactive”.
In the case of LFMEYWSVATCRNSGIVFIV, the amyloid nucleation score is reported as “inactive”.
For CAWVHIS, the amyloid nucleation score was “inactive”.
With CGYKEVGVPASRRMNS the amyloid nucleation score was “inactive”.
In the case of FLLMC, the amyloid nucleation score is reported as “inactive”.
In the case of LLLTSVL, the amyloid nucleation score is reported as “inactive”.
In the case of LVYLSASFVW, the amyloid nucleation score is reported as 0.108 ± 0.67.
With PYAPVWKRGRNYFTNSFLYM the amyloid nucleation score was “inactive”.
For CSRIRLMGFDWLAPIPHA, the amyloid nucleation score was “inactive”.
In the case of MCNFCQLFFTLLITSLFKLG, the amyloid nucleation score is reported as 0.807 ± 0.18.
For AKTSADYTYVASRTDFGCVN, the amyloid nucleation score was “inactive”.
For ITFLDWKLTTTG, the amyloid nucleation score was “inactive”.
In the case of LSLTYVSPHA, the amyloid nucleation score is reported as 0.968 ± 0.17.
Substance WCFYFEQDMFHAPY has an amyloid nucleation score of -0.106 ± 0.82.
With CNVASSNFRCHYSQMRRFCE the amyloid nucleation score was “inactive”.
In the case of FIRMVGRLKKWRVS, the amyloid nucleation score is reported as “inactive”.
With PRLTFSVVVRFCIHTLCLLK the amyloid nucleation score was “inactive”.
GANFVCSVECRLVRRNSRYD gave an amyloid nucleation score of 0.511 ± 0.21.
Work on CATFFAKLQYNYH yielded an amyloid nucleation score of 1.28 ± 0.12.
For RTVKNSRLGTMIVY, the amyloid nucleation score was “inactive”.
With LNCMVITFVCFLVSNSIGGD the amyloid nucleation score was 1.71 ± 0.11.
IYISFWR gave an amyloid nucleation score of 0.521 ± 0.2.
For ARLETHCFMRRRGQF, the amyloid nucleation score was “inactive”.
In the case of GKWKIKQ, the amyloid nucleation score is reported as “inactive”.
In the case of LHTMGMSVGGMAMNKIDCPN, the amyloid nucleation score is reported as “inactive”.
With SMNTHGCFYRRYLSESPFEC the amyloid nucleation score was “inactive”.
For STNSRFFSAYCSVVGMRRHA, the amyloid nucleation score was “inactive”.
For EYSLMVNSTIDYFGDSNICE, the amyloid nucleation score was “inactive”.
With NLGKTLNTLYLVFTFRDVF the amyloid nucleation score was “inactive”.
Work on AVVVIQRYLAVHCWVFGERI yielded an amyloid nucleation score of -0.57 ± 0.93.
In the case of CSGISSNGGLLTLGCCFCRG, the amyloid nucleation score is reported as 2.96 ± 0.076.
For PRLKFASYVMEMPLKFGEGI, the amyloid nucleation score was “inactive”.
For MKFVPHYEGVYCL, the amyloid nucleation score was “inactive”.
With SVGKWMYRPSEYGACCASGY the amyloid nucleation score was “inactive”.
For RFKCSTNGCRTFRGHHYNVK, the amyloid nucleation score was “inactive”.
In the case of RIYGHVLSRDANFVRLWVGT, the amyloid nucleation score is reported as “inactive”.
With ACMLNEWRNVVRPYLCLSKN the amyloid nucleation score was “inactive”.
With NDRIYCGGDYPTNH the amyloid nucleation score was “inactive”.
For SIYDSVFKMFCVWIVTSVLF, the amyloid nucleation score was “inactive”.
For DHKFGNMLAFESRLVLYQIK, the amyloid nucleation score was “inactive”.
In the case of SIQRICMYLKGESCTRVYHS, the amyloid nucleation score is reported as “inactive”.
With VNRFVDTVGKGRITIIGCEH the amyloid nucleation score was “inactive”.
With TLMGLESVSVYFSMGFLSVY the amyloid nucleation score was “inactive”.
KILFILISFLWMLFLVWNFN showed an amyloid nucleation score of 1.48 ± 0.1.
With YSLCACSYYVNVVNNRVVSV the amyloid nucleation score was 1.39 ± 0.073.
For KYCHIYFNICLWLAYSLSFL, the amyloid nucleation score was “inactive”.
Substance VFLGCYSSYIVIWDARAPG has an amyloid nucleation score of 1.96 ± 0.071.
For LLHTQMALGSLCVGYKIWLG, the amyloid nucleation score was “inactive”.
In the case of ASFKFGG, the amyloid nucleation score is reported as “inactive”.
For YVNVYGSQMVYSKSQGHFPD, the amyloid nucleation score was “inactive”.
In the case of MDDFLYAVPMWELWKVLRDE, the amyloid nucleation score is reported as “inactive”.
For TRKLIDYLFTVKQVLQSKEE, the amyloid nucleation score was “inactive”.
For THLIIHCLCLFERVFITHVA, the amyloid nucleation score was “inactive”.
In the case of HAFFSADSWGNDIELFIYNG, the amyloid nucleation score is reported as “inactive”.
For GAVWFIRRRPKDRIRRVSLW, the amyloid nucleation score was “inactive”.
With WKFAGHEALWFLKIIEMLR the amyloid nucleation score was “inactive”.
In the case of KYNTCSEV, the amyloid nucleation score is reported as “inactive”.
With TKLCQSLRHAQRGTRTTSFS the amyloid nucleation score was “inactive”.
In the case of TFCVQYESRFRFQESESLHM, the amyloid nucleation score is reported as “inactive”.
With YPSMLPGTGSIAIMDEFVIM the amyloid nucleation score was “inactive”.
Work on FPWYAIFSHSMLCVDIQDF yielded an amyloid nucleation score of 0.958 ± 0.2.
For TACVFPLMFTTVPGFFFVVE, the amyloid nucleation score was “inactive”.
In the case of NCYFIQGWSSLMYSKGFNKC, the amyloid nucleation score is reported as “inactive”.
TEESIDVDCVILVTNCHFRC gave an amyloid nucleation score of 0.804 ± 0.18.
For LEYCVNL, the amyloid nucleation score was “inactive”.
With FVRPFGRVFIFQKDFSIKVC the amyloid nucleation score was “inactive”.
In the case of GCTCQ, the amyloid nucleation score is reported as 1.21 ± 0.15.
With IPNMDAFLERRPREYNWPVA the amyloid nucleation score was “inactive”.
In the case of QRFYILPRQCNALKGIITSL, the amyloid nucleation score is reported as “inactive”.
With IVKTPVCSVTRRYPFSDRLL the amyloid nucleation score was “inactive”.
With SCYRVNLLGVYWRVMVDVLV the amyloid nucleation score was “inactive”.
For PILMISCAAGKELQLKVLWN, the amyloid nucleation score was “inactive”.
For FNNFSYCHTDARVWVMATVM, the amyloid nucleation score was “inactive”.
With VVRSRTFTSTSYTF the amyloid nucleation score was 0.777 ± 0.23.
With VKSFCCFGWVLSP the amyloid nucleation score was “inactive”.
For NGKVLM, the amyloid nucleation score was “inactive”.
With LWEVRSEPDPDSSNKLLSRE the amyloid nucleation score was 0.136 ± 0.39.
In the case of SKESCRCLSWCGPEPRSCIA, the amyloid nucleation score is reported as “inactive”.
With GLMERNDMSEYSSAG the amyloid nucleation score was “inactive”.
With RAKVNSRGCEESFF the amyloid nucleation score was -0.007 ± 0.73.
In the case of SMHRQVPFPMKKHLEHLSMT, the amyloid nucleation score is reported as “inactive”.
For FCRQGNILFY, the amyloid nucleation score was “inactive”.
For VGGQWGAYAAKA, the amyloid nucleation score was “inactive”.
Work on RYSYLGVCIKMSRKVKCVVT yielded an amyloid nucleation score of 0.086 ± 0.66.
For LSELVLSWMQMDSCTRFDMC, the amyloid nucleation score was “inactive”.
With KYVAKFSSLILTFL the amyloid nucleation score was “inactive”.
With SVAGRCVSWNQRGKGLRNAR the amyloid nucleation score was “inactive”.
With SCDLFSC the amyloid nucleation score was “inactive”.
With TIESNCVDDLSIGGAGPNLR the amyloid nucleation score was “inactive”.
In the case of CYRCVCFLLCGFVQSDCYDD, the amyloid nucleation score is reported as “inactive”.
With PCGVEMLWFKG the amyloid nucleation score was “inactive”.
For LSGYYEQVVWVNRSSNSTMN, the amyloid nucleation score was “inactive”.
For KPCHASVET, the amyloid nucleation score was “inactive”.
For TWESGENLTLTWAAQMGRCG, the amyloid nucleation score was “inactive”.
For FPVARAIATMGWHIGALFLN, the amyloid nucleation score was “inactive”.
For LAVFKFDRSLIWDTTVRVFH, the amyloid nucleation score was “inactive”.
In the case of HYMLGSLSPVWLFFL, the amyloid nucleation score is reported as “inactive”.
Substance QVLFAYIYLSLVNVSQG has an amyloid nucleation score of 1.03 ± 0.14.
With NATSQLVVGAVQ the amyloid nucleation score was “inactive”.
For FISRSGAVGRRS, the amyloid nucleation score was “inactive”.
With ESFESVYR the amyloid nucleation score was “inactive”.
For FPICWLRVVDLALFKWMYNF, the amyloid nucleation score was “inactive”.
In the case of RLLDGMTSVLC, the amyloid nucleation score is reported as “inactive”.
MSGSRWRSTNFTCNNLWFDR gave an amyloid nucleation score of -1.07 ± 1.1.
For VMQHNVGLFNDHKYDSCRAC, the amyloid nucleation score was “inactive”.
For MRYGKLDLSRVYLQCDRLGR, the amyloid nucleation score was “inactive”.
In the case of SWYEYCLINSLRKGSGYKEP, the amyloid nucleation score is reported as “inactive”.
With FRNCRSWATCTAKARLHCPS the amyloid nucleation score was 0.812 ± 0.16.
In the case of EKCWFQVCCTRSLGKSGIIC, the amyloid nucleation score is reported as “inactive”.
For GCLRDPTVAQVDYLGYGVRL, the amyloid nucleation score was “inactive”.
With VYILFNWSRPSCHLIEHFRA the amyloid nucleation score was “inactive”.
For DKDMNEQVS, the amyloid nucleation score was “inactive”.
For DQQCDDVWRRWDGYGRRKKR, the amyloid nucleation score was “inactive”.
For ETNEGPH, the amyloid nucleation score was “inactive”.
For PTGSFMLLET, the amyloid nucleation score was “inactive”.
For MGNRNDSNLTRCWESTLVVK, the amyloid nucleation score was “inactive”.
With CVAYSRTEVRFYRYEHLWV the amyloid nucleation score was 1.18 ± 0.12.
For FIRLFEYMRGLPLLVKNDSV, the amyloid nucleation score was 0.234 ± 0.72.
In the case of NIPPLTLLAVVGS, the amyloid nucleation score is reported as “inactive”.
